{"source": "paper PMC4752722", "about": "(Cell, 2016)", "proteins": {"B1": {"name": "CorA double cysteine mutant V183C/A8C (natural protein, Thermotoga maritima)", "chain": "MEEKRLSCKKGLPPGTLVYTGKYREDFEIEVMNYSIEEFREFKTTDVESVLPFRDSSTPTWINITGIHRTDVVQRVGEFFGIHPLVLEDILNVHQRPKVEFFENYVFIVLKMFTYDKNLHELESEQVSLILTKNCVLMFQEKIGDVFDPVRERIRYNRGIIRKKRADYLLYSLIDALVDDYFCLLEKIDDEIDVLEEEVLERPEKETVQRTHQLKRNLVELRKTIWPLREVLSSLYRDVPPLIEKETVPYFRDVYDHTIQIADTVETFRDIVSGLLDVYLSSVSNKTNEVMKVLTIIATIFMPLTFIAGIYGMNFEYMPELRWKWGYPVVLAVMGVIAVIMVVYFKKKKWL"}}, "target": "the molecule itself", "assay": "cross-linking", "data": [{"protein": "B1", "values": [{"measurement": "stoichiometry N", "value": 5}]}]}
